# Bridge positions count the residues as written; N and C are the ends. Ends that are not written are not given here.
# Tests used:
# [1] = molecular target: TNF receptor (immobilized, control); experiment: SPR (Biacore 3000), control peptide injected over immobilized TNF receptor (control)
# [2] = molecular target: T1, ErbB3 extracellular domain (recombinant, soluble) (UniProt P21860 20-643, limits assumed); experiment: SPR (Biacore 3000), control peptide injected over immobilized receptor extracellular domain
# T1 construct: extracellular domain; also called ectodomain of erbB3
# T1 sequence (P21860 20-643 limits assumed): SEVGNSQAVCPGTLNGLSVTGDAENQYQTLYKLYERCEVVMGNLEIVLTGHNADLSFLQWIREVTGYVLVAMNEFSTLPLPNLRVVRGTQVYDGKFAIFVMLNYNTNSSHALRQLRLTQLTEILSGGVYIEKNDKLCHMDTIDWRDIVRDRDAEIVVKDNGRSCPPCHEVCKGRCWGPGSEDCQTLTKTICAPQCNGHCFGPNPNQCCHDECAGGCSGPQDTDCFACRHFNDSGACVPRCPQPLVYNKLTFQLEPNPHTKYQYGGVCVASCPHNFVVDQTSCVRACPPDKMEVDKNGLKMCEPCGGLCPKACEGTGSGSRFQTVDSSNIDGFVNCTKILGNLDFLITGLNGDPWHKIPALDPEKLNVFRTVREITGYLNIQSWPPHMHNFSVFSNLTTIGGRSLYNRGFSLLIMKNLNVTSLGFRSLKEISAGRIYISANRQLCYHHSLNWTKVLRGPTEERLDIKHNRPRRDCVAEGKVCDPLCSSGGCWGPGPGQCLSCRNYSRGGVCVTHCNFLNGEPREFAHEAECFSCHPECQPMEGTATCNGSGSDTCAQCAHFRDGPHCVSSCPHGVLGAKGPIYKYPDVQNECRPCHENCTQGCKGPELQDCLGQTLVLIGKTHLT
# [3] = molecular target: T2, ErbB2 extracellular domain (recombinant) (UniProt P04626 23-652, limits assumed); experiment: as above
# T2 construct: extracellular domain; also called whole ectodomain of erbB2; full-size erbB2 ectodomain
# [4] = molecular target: T3, ErbB1 extracellular domain (recombinant, soluble) (UniProt P00533 25-645, limits assumed); experiment: as above
# T3 construct: extracellular domain; also called erbB1 ectodomain; EGFr
# [5] = molecular target: T1, ErbB3 extracellular domain …; experiment: SPR; peptide 10 µM preinjected over immobilized ErbB3, then ErbB3 (300 nM) with HRGβ1 (5 µM); competitor: erbB3-HRGβ1
# [6] = molecular target: TNF receptor (immobilized, control); experiment: SPR (Biacore 3000), peptide injected over immobilized TNF receptor (control)
# [7] = molecular target: T1, ErbB3 extracellular domain …; experiment: SPR (Biacore 3000), peptide injected over immobilized receptor extracellular domain
# [8] = molecular target: T2, ErbB2 extracellular domain (recombinant); experiment: as above
# [9] = molecular target: T3, ErbB1 extracellular domain …; experiment: as above
# [10] = molecular target: T4, erbB2 receptor, native full-length, on transfected 32D cells (32D-E2/E4 and 32D-E2/E3) (UniProt P04626 23-1255, limits assumed); experiment: inhibition of heregulin-induced erbB2-erbB4 dimerization on 32D-E2/E4 cells, chemical cross-linking and immunoblot, dose dependence; 32D-E2/E4 cells; heregulin-induced erbB2-erbB4 heteromerization
# T4 construct: whole, on cells
# [11] = molecular target: T2, ErbB2 extracellular domain (recombinant); experiment: SPR; peptide 10 µM preinjected over immobilized ErbB2, then ErbB3 (300 nM) with HRGβ1 (5 µM); competitor: erbB3-HRGβ1
# [12] = molecular target: T3, ErbB1 extracellular domain …; experiment: SPR; peptide 10 µM preinjected over immobilized ErbB1, then ErbB3 (300 nM) with HRGβ1 (5 µM); competitor: erbB3-HRGβ1
# [13] = molecular target: T5, erbB2-SbdIV (recombinantly expressed subdomain IV of erbB2, GST fusion protein) (UniProt P04626 511-652); experiment: SPR (Biacore), peptide over immobilized erbB2-SbdIV
# T5 construct: domain: subdomain IV; Expressed in E. coli BL-21 (DE3) and eluted from glutathione sepharose; no removal of GST is told; also called erbB2-Sbd W; not shown: glutathione S-transferase of the pGEX-5X-3 vector (N-terminal fusion partner)
# [14] = molecular target: T3, ErbB1 extracellular domain …; experiment: SPR (Biacore), global fit to the 1:1 Langmuir model; receptor taken as erbB1 by the KD of 0.21 µM
Kd [1],Kd [2],Kd [3],Kd [4],Percent Inhibition [5],Kd [6],Kd [7],Kd [8],Kd [9],IC50 [10],Percent Inhibition [11],Percent Inhibition [12],Kd [13],koff [13],kon [13],koff [14],kon [14],Binder
–,–,–,–,75.1%,> 1000 µM,0.288 µM,0.371 µM,0.449 µM,–,71.4%,65.2%,–,–,–,–,–,YCLVWKYADAGCY (disulfide 2-12 (inferred)) [B1-S22-ALG (derived from erbB1)]
–,–,–,–,72.8%,> 1000 µM,0.394 µM,0.639 µM,0.583 µM,–,54.2%,60.3%,–,–,–,–,–,YCFIFKYADPDCY (disulfide 2-12 (inferred)) [B4-S22-AFD (derived from erbB4)]

# The next lines start with the binder.
Binder,Kd [1],Kd [2],Kd [3],Kd [4],Percent Inhibition [5],Kd [6],Kd [7],Kd [8],Kd [9],IC50 [10],Percent Inhibition [11],Percent Inhibition [12],Kd [13],koff [13],kon [13],koff [14],kon [14]
"FCYIGEVEDQCY (disulfide 2-11 (inferred), also called control peptide) [CD4-G (CD4 receptor-derived cyclic peptide, negative control)]",> 1000 µM,> 1000 µM,> 1000 µM,> 1000 µM,–,–,–,–,–,–,–,–,–,–,–,–,–
YCFPDEEGACY (disulfide 2-10 (inferred)) [B2-S22-AFA (derived from erbB2)],–,–,–,–,61.7%,> 1000 µM,0.429 µM,0.302 µM,0.407 µM,0.8 µM,82.5%,78.4%,–,–,–,–,–
YCPIWKFPDEECY (disulfide 2-12 (inferred)) [B2-S22-APE (derived from erbB2)],–,–,–,–,42.7%,> 1000 µM,1.4 µM,1.53 µM,0.21 µM,–,51.1%,80.3%,1.89 µM,0.00307 s⁻¹,1620 M⁻¹ s⁻¹,0.000685 s⁻¹,3240 M⁻¹ s⁻¹
YCPIYKYPDVQCY (disulfide 2-12 (inferred)) [B3-S22-APQ (derived from erbB3)],–,–,–,–,32.4%,> 1000 µM,1.07 µM,0.549 µM,0.472 µM,–,58.1%,69%,–,–,–,–,–
